{
  "source": "patent US20110135634A1",
  "about": "“METHODS OF INHIBITING INFECTION BY DIVERSE SUBTYPES OF DRUG-RESISTANT HIV-1” (priority 2007, published 2011)",
  "molecules": {"B1": {"name": "PRO 140: humanized IgG4,κ anti-CCR5 mAb being developed for HIV-1 therapy (antibody, chains of the INN, looked up, V domains shown)", "VH": "EVQLVESGGGLVKPGGSLRLSCAASGYTFSNYWIGWVRQAPGKGLEWIGDIYPGGNYIRNNEKFKDKTTLSADTSKNTAYLQMNSLKTEDTAVYYCGSSFGSNYVFAWFTYWGQGTLVTVSS", "VL": "DIVMTQSPLSLPVTPGEPASISCRSSQRLLSSYGHTYLHWYLQKPGQSPQLLIYEVSNRFSGVPDRFSGSGSGTDFTLKISRVEAEDVGVYYCSQSTHVPLTFGQGTKVEIK"}},
  "key": {"[1]": {"test": "Phase 1b clinical trial: safety, PK, immunogenicity, tropism, susceptibility", "format": "in vivo, human", "conditions": "HIV-infected subjects", "source_text": "All patients were screened prior to the study for the presence of virus that utilizes only CCR5 as the entry coreceptor, i.e., CCR5-tropic virus."}, "[2]": {"conditions": "human, in vivo", "method": "(§1) Individuals were treated in sequential, dose-rising cohorts of 5 subjects (4 active and 1 placebo) each and evaluated for up to 120 days post-treatment. […] Safety assessments consisted of monitoring the following: vital signs (blood pressure, pulse, temperature, etc; hematology (hemoglobin, hematocrit, leukocytes, platelets, etc.); serum chemistries (AST/ALT, alkaline phosphatase, BUN, creatinine, etc.); urinalysis (pH, specific gravity, protein, glucose, leukocytes, etc.); and ECGs (12-lead).\nSera were diluted as appropriate and combined with L1.2-CCR5 cells, which are mouse pre-B lymphoma cells engineered to stably express human CCR5. […] Following incubation with test samples, cells were washed and combined with a FITC-labeled sheep antibody against human IgG4 (The Binding Site Limited, Cat. #AF009). Cells were washed again and analyzed by flow cytometry.\nSerum was collected post-treatment, cryopreserved, and analyzed for PRO 140 levels. Peak serum concentrations ranged to […] at 0.1 mg/kg and […] at 0.5 mg/kg."}, "HIV-1": {"system": "HIV-1", "conditions": "Olson et al., 1999; Trkola et al., 2001; cited from earlier work"}, "[3]": {"conditions": "human, in vivo", "method": "as §1", "remark": "listed apart in the source"}, "[4]": {"target": "T1, CCR5 on CEM.NKR-CCR5 cells (Homo sapiens, UniProt P51681)", "T1 construct": "host or cells: CEM.NKR-CCR5 (transduced human T cell leukemia line)", "T1 sequence (P51681 whole entry)": "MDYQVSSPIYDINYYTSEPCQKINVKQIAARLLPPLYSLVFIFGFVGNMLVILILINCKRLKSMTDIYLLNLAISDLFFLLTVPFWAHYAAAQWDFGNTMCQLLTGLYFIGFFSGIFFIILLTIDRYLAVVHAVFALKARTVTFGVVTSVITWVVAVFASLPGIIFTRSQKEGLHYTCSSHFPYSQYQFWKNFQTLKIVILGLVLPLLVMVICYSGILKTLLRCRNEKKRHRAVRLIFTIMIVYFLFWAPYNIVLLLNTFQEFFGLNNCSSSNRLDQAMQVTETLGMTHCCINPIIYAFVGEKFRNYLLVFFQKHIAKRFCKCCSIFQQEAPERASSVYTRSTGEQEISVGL", "test": "Competition binding: inhibition of 3H-UK-427,857 binding", "conditions": "read-out: EC50, inhibition of 3H-UK-427,857 binding; 2 nM 3H-UK-427,857, CEM.NKR-CCR5 cells", "text": "The cells were washed in PBSA and lysed with 0.5N HCl prior to scintillation counting using a Wallac 1410 instrument."}, "[5]": {"system": "primary R5 HIV-1 isolates", "test": "Whole virus replication (neutralization) assay", "format": "cell-based", "conditions": "a variety of primary R5 strains (FIG. 1)", "method": "Humanized PRO140 is potently antiviral. […] The data reflect the median values from 8 or more independent assays. The genetic subtypes of the viruses are indicated in parentheses.\nStimulated PBMCs are seeded into wells of 96-well flat bottom plates at a density of 1.4×10^5 cells/well. Virus is diluted to 2,000 TCID50/ml and mixed with serial 0.5 log10 dilutions of compound for 1 h at 37° C. prior to addition to the cell plates. The final amount of virus added per well is 100 TCID50. The final DMSO concentration in the assay is always 0.5% whenever small molecule inhibitors are being tested. Plates are incubated at 37° C. for 5 days, at which time an aliquot of supernatant is removed for p24 antigen ELISA.\nThe percent inhibition is derived as follows [1−(p24 levels in the presence of drug/p24 levels in the absence of drug)]×100."}, "[6]": {"system": "primary R5 HIV-1 isolates JR-FL and Case C 1/85 (CC1/85)", "test": "In vitro resistance selection and susceptibility testing on PBMC", "format": "cell-based", "conditions": "p24 ELISA", "method": "For susceptibility testing, viruses were cultured in vitro on stimulated PBMC. In the presence and absence of serially diluted drug, and the extent of viral replication was determined by p24 ELISA."}, "[7]": {"system": "reporter viruses pseudotyped with HIV-1SF162 envelope (U87-CD4-CCR5 cells)", "test": "HIV-1 pseudovirus assay, SF162 envelope", "format": "cell-based", "source_text": "A self-inactivating (SIN) vector was derived from the pNL4-3ΔEnv-luciferase vector (Dragic et al. 1996) by deleting 507 basepairs in the U3 region of the 3′ long terminal repeat (LTR) so as to remove the TATA box and transcription factor binding sites. The human cytomegalovirus promoter was inserted upstream of the luciferase (luc) gene to enable expression of luciferase following integration.\nReporter viruses pseudotyped with HIV-1JR-FL or HIV-1SF162 envelopes were generated by cotransfection of 293T cells with the SIN vector and the appropriate pcDNA env-expressing vector as previously described (Dragic et al. 1996). […] Cultures were incubated for 72 h at 37° C. in DMEM containing 10% fetal bovine serum, […] puromycin, 0.3 mg/mL geneticin, antibiotics, and 0.5% DMSO. Luciferase activity (relative light units or RLU) was measured using. BrightGlo reagent (Promega, Madison, Wis.) according to the manufacturer's instructions.\nExperimental design and data analysis were based on the combination index (CI) method (Chou et al. 1991; Chou et al. 1984). […] The mutually exclusive CI formula was used for combinations of CCR5 inhibitors, while the mutually non-exclusive formula was utilized for combinations of inhibitors to distinct targets (Chou et al. 1991). Each test was conducted 4-12 times. Synergy, additivity and antagonism are indicated by CI<1, CI=1 and CI>1, respectively."}, "CCR5 lymphocytes": {"system": "CCR5 lymphocytes", "format": "in vivo, human", "method": "Whole blood specimens were combined separately with the indicated phycoerythrin-labeled anti-CCR5 antibodies or with appropriate isotype-control antibodies. Erythocytes were lysed and leukocytes were stabilized using the ImmunoPrep Reagent System (Beckman Coulter), and the cells were analyzed on a TQ Prep™ flow cytometry workstation (Beckman Coulter). Data were expressed as the percent of CCR5 cells relative to all cells gated in the analysis.\nFor up to 60 days post-treatment, at the times indicated in FIG. 6, blood was collected and analyzed for CCR5 lymphocyte levels.\nBackground binding of isotype control antibodies was unchanged."}, "[8]": {"conditions": "SF162, labelled 1st inhibitor with 2nd inhibitor PRO 140 (equimolar; 1:10 PRO 140 to nevirapine or zidovudine)"}},
  "note": "Read-outs that look alike come from different tables or passages of the source.",
  "data": [
    {"molecule": "B1", "values": [
      {"measurement": "change in plasma RANTES (CCL5) chemokine levels", "setting": "[1]", "value": "No change"},
      {"measurement": "dose-limiting toxicity", "setting": "[1]; 0.5-5.0 mg/kg", "value": "No dose-limiting toxicity"},
      {"measurement": "treatment related SAEs", "setting": "[1]; 0.5-5.0 mg/kg", "value": "No treatment related SAEs"},
      {"measurement": "tolerability", "setting": "[1]; all study groups", "value": "well-tolerated"},
      {"measurement": "terminal serum half-life", "setting": "[2]", "value": "240 to 288", "unit": "h"},
      {"measurement": "IC90", "setting": "HIV-1", "value": "about 4 μg/ml"},
      {"measurement": "dose-limiting toxicity", "setting": "[3]", "value": "no dose-limiting toxicity"},
      {"measurement": "EC50", "setting": "[4]", "value": 14, "unit": "nM"},
      {"measurement": "IC90", "setting": "[5]", "value": "3 to 4", "unit": "µg/mL"},
      {"measurement": "inhibition of SCH-D escape mutants", "setting": "[6]", "value": "efficiently inhibited"},
      {"measurement": "IC50", "setting": "[7]; HIV-1 envelope SF162, 1st inhibitor alone, read-out: IC50", "value": 1.3, "unit": "nM"},
      {"measurement": "IC90", "setting": "[7]; HIV-1 envelope SF162, 1st inhibitor alone, read-out: IC90", "value": 20, "unit": "nM"},
      {"measurement": "CI50", "setting": "[7]; [8]", "value": "1.0 ± 0.27"},
      {"measurement": "CI90", "setting": "[7]; [8]", "value": "0.86 ± 0.33"},
      {"measurement": "overall number of CCR5 lymphocytes as measured by CTC5 binding", "setting": "CCR5 lymphocytes; in vivo, 2 mg/kg", "value": "no decrease"},
      {"measurement": "time CCR5 lymphocytes effectively coated without cellular depletion", "setting": "CCR5 lymphocytes; single 2 mg/kg dose", "value": "two weeks"},
      {"measurement": "time cells remain partially coated", "setting": "CCR5 lymphocytes; single 2 mg/kg dose", "value": "> 4", "unit": "weeks"},
      {"measurement": "time cells remain partially coated", "setting": "CCR5 lymphocytes; single 5 mg/kg dose", "value": "> 60", "unit": "days"}
    ]}
  ]
}
